According to patent publication US20140178854A1:

Columns and labels:
[1] = target: gp70 env protein of amphotropic MLV (4070A envelope), on purified viral particles (amphotropic murine leukemia virus (4070A envelope)); test: ELISA on plate-bound MLV, dilution factor 6250, Exp072-DTV Plate 1
[2] = target: gp70 env protein of amphotropic MLV (4070A envelope), on purified viral particles (amphotropic murine leukemia virus (4070A envelope)); test: ELISA on plate-bound MLV, dilution factor 10, Exp074-DTV Plate 1
[3] = target: gp70 env protein of amphotropic MLV (4070A envelope), on purified viral particles (amphotropic murine leukemia virus (4070A envelope)); test: ELISA on plate-bound MLV, dilution factor 10, Exp074-DTV Plate 2
[4] = target: gp70 env protein of amphotropic MLV (4070A envelope), on purified viral particles (amphotropic murine leukemia virus (4070A envelope)); test: ELISA on plate-bound MLV, dilution factor 31250, Exp073-DTV Plate 1
[5] = target: gp70 env protein of amphotropic MLV (4070A envelope), on purified viral particles (amphotropic murine leukemia virus (4070A envelope)); test: ELISA on plate-bound MLV, dilution factor 1250, Exp122-Ana Plate 1
[6] = target: gp70 env protein of amphotropic MLV (4070A envelope), on purified viral particles (amphotropic murine leukemia virus (4070A envelope)); test: ELISA on plate-bound MLV, dilution factor 31250, Exp122-Ana Plate 2
[7] = target: gp70 env protein of amphotropic MLV (4070A envelope), on purified viral particles (amphotropic murine leukemia virus (4070A envelope)); test: ELISA on plate-bound MLV, dilution factor 10, Exp122-Ana Plate 1
[8] = target: gp70 env protein of amphotropic MLV (4070A envelope), on purified viral particles (amphotropic murine leukemia virus (4070A envelope)); test: ELISA on plate-bound MLV, dilution factor 781250, Exp074-DTV Plate 2
[9] = target: gp70 env protein of amphotropic MLV (4070A envelope), on purified viral particles (amphotropic murine leukemia virus (4070A envelope)); test: ELISA on plate-bound MLV, dilution factor 156250, Exp072-DTV Plate 2
[10] = target: gp70 env protein of amphotropic MLV (4070A envelope), on purified viral particles (amphotropic murine leukemia virus (4070A envelope)); test: ELISA on plate-bound MLV, dilution factor 1250, Exp122-Ana Plate 2
[11] = target: gp70 env protein of amphotropic MLV (4070A envelope), on purified viral particles (amphotropic murine leukemia virus (4070A envelope)); test: ELISA on plate-bound MLV, dilution factor 6250, Exp074-DTV Plate 2
[12] = target: gp70 env protein of amphotropic MLV (4070A envelope), on purified viral particles (amphotropic murine leukemia virus (4070A envelope)); test: ELISA on plate-bound MLV, dilution factor 6250, Exp125-Ana Plate 2
[13] = target: gp70 env protein of amphotropic MLV (4070A envelope), on purified viral particles (amphotropic murine leukemia virus (4070A envelope)); test: ELISA on plate-bound MLV, dilution factor 1250, Exp125-Ana Plate 1
[14] = target: gp70 env protein of amphotropic MLV (4070A envelope), on purified viral particles (amphotropic murine leukemia virus (4070A envelope)); test: ELISA on plate-bound MLV, dilution factor 250, inter-assay mean of six experiments
[15] = target: gp70 env protein of amphotropic MLV (4070A envelope), on purified viral particles (amphotropic murine leukemia virus (4070A envelope)); test: ELISA on plate-bound MLV, dilution factor 10, inter-assay mean of six experiments
[16] = target: gp70 env protein of amphotropic MLV (4070A envelope), on purified viral particles (amphotropic murine leukemia virus (4070A envelope)); test: ELISA on plate-bound MLV, dilution factor 50, Exp073-DTV Plate 2
[17] = target: gp70 env protein of amphotropic MLV (4070A envelope), on purified viral particles (amphotropic murine leukemia virus (4070A envelope)); test: ELISA on plate-bound MLV, dilution factor 31250, Exp074-DTV Plate 1
[18] = target: gp70 env protein of amphotropic MLV (4070A envelope), on purified viral particles (amphotropic murine leukemia virus (4070A envelope)); test: ELISA on plate-bound MLV, dilution factor 50, Exp122-Ana Plate 2
[19] = target: gp70 env protein of amphotropic MLV (4070A envelope), on purified viral particles (amphotropic murine leukemia virus (4070A envelope)); test: ELISA on plate-bound MLV, dilution factor 1250, Exp074-DTV Plate 1
[20] = target: gp70 env protein of amphotropic MLV (4070A envelope), on purified viral particles (amphotropic murine leukemia virus (4070A envelope)); test: ELISA on plate-bound MLV, dilution factor 6250, Exp125-Ana Plate 1
[21] = target: gp70 env protein of amphotropic MLV (4070A envelope), on purified viral particles (amphotropic murine leukemia virus (4070A envelope)); test: ELISA on plate-bound MLV, dilution factor 10, Exp072-DTV Plate 2
[22] = target: gp70 env protein of amphotropic MLV (4070A envelope), on purified viral particles (amphotropic murine leukemia virus (4070A envelope)); test: ELISA on plate-bound MLV, dilution factor 31250, Exp073-DTV Plate 2
[23] = target: gp70 env protein of amphotropic MLV (4070A envelope), on purified viral particles (amphotropic murine leukemia virus (4070A envelope)); test: ELISA on plate-bound MLV, dilution factor 1250, Exp125-Ana Plate 2
[24] = target: gp70 env protein of amphotropic MLV (4070A envelope), on purified viral particles (amphotropic murine leukemia virus (4070A envelope)); test: ELISA on plate-bound MLV, dilution factor 50, Exp073-DTV Plate 1
[25] = target: gp70 env protein of amphotropic MLV (4070A envelope), on purified viral particles (amphotropic murine leukemia virus (4070A envelope)); test: ELISA on plate-bound MLV, dilution factor 156250, Exp121-Ana Plate 2
[26] = target: gp70 env protein of amphotropic MLV (4070A envelope), on purified viral particles (amphotropic murine leukemia virus (4070A envelope)); test: ELISA on plate-bound MLV, dilution factor 6250, Exp122-Ana Plate 2

Sequence of gp70 env protein of amphotropic MLV (4070A envelope), on purified viral particles (amphotropic murine leukemia virus (4070A envelope)) (P21995 whole entry): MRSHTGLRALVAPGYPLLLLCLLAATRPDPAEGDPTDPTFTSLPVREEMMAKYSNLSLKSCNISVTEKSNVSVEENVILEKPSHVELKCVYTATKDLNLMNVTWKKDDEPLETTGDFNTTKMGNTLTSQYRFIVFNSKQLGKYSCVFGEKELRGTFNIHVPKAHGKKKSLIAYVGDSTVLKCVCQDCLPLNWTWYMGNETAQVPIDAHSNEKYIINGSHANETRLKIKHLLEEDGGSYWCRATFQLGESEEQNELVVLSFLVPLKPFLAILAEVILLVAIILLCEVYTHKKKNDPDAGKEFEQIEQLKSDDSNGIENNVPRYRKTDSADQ

## 83A25 monoclonal antibody (rat IgG2a, anti-gp70)
[1]
  Mean OD: 0.558 OD
[2]
  Mean OD: 2.25 OD
[3]
  Mean OD: 2.31 OD
[4]
  Mean OD: 0.282 OD
[5]
  Mean OD: 1.48 OD
[6]
  Mean OD: 0.271 OD
[7]
  Mean OD: 2.17 OD
[8]
  Mean OD: 0.107 OD
[9]
  Mean OD: 0.119 OD
[10]
  Mean OD: 1.4 OD
[11]
  Mean OD: 0.699 OD
[12]
  Mean OD: 0.635 OD
[13]
  Mean OD: 1.44 OD
[14]
  Mean OD (inter-assay mean): 1.93 OD
[15]
  Mean OD (inter-assay mean): 2.3 OD
[16]
  Mean OD: 2.31 OD
[17]
  Mean OD: 0.253 OD
[18]
  Mean OD: 1.89 OD
[19]
  Mean OD: 1.45 OD
[20]
  Mean OD: 0.653 OD
[21]
  Mean OD: 2.04 OD
[22]
  Mean OD: 0.276 OD
[23]
  Mean OD: 1.44 OD
[24]
  Mean OD: 2.27 OD
[25]
  Mean OD: 0.159 OD
[26]
  Mean OD: 0.643 OD
